Substitutions are numbered along the chain they refer to. In names and notes the source's numbering stands.
B1: D3-L11 A79R (VHH)
VHH: DVQLVESGGGSVQAGGSLRLSCAASGSTDSIEYMTWFRQAPGKAREGVAALYTHTGNTYYTDSVKGRFTISQDKAKNMRYLRMDSVKSEDTAIYTCGATRKYVPVRFALDQSSYDYWGQGTQVTVSS
notes: as the VHH chain of Sm1 (D3-L11 wild type, PDB 6JB8) with A79R; SAG tripeptide linker before the C-terminal 6xHis tag; source: ExpiCHO, transient transfection, purified from supernatant (His Mag Sepharose excel); not shown: His6, C-terminal, kept
B2: D3-L11 A79F (VHH)
VHH: B1 VHH with R79F
notes: as the VHH chain of m2 (D3-L11, PDB 6JB8) with the stated substitution; First-round mutant; same construct as m2; also called F mutant; source: ExpiCHO, transient transfection, purified from supernatant (His Mag Sepharose excel); not shown: His6 (after a SAG tripeptide linker), C-terminal, kept
B3: D3-L11 A79S (VHH)
VHH: B1 VHH with R79S
notes: as the VHH chain of Sm1 (D3-L11 wild type, PDB 6JB8) with A79S; SAG tripeptide linker before the C-terminal 6xHis tag; source: ExpiCHO, transient transfection, purified from supernatant (His Mag Sepharose excel); not shown: His6, C-terminal, kept
B4: D3-L11 A79L (VHH)
VHH: B1 VHH with R79L
notes: as the VHH chain of Sm1 (D3-L11 wild type, PDB 6JB8) with A79L; SAG tripeptide linker before the C-terminal 6xHis tag; source: ExpiCHO, transient transfection, purified from supernatant (His Mag Sepharose excel); not shown: His6, C-terminal, kept
B5: D3-L11 A79I (VHH)
VHH: B1 VHH with R79I
notes: as the VHH chain of Sm1 (D3-L11 wild type, PDB 6JB8) with A79I; SAG tripeptide linker before the C-terminal 6xHis tag; source: ExpiCHO, transient transfection, purified from supernatant (His Mag Sepharose excel); not shown: His6, C-terminal, kept
B6: D3-L11 A79C (VHH)
VHH: B1 VHH with R79C
notes: as the VHH chain of m2 (D3-L11, PDB 6JB8) with the stated substitution; Second-round mutant; same construct as m2; also called C mutant; source: ExpiCHO, transient transfection, purified from supernatant (His Mag Sepharose excel); not shown: His6 (after a SAG tripeptide linker), C-terminal, kept
B7: D3-L11 A79V (VHH)
VHH: B1 VHH with R79V
notes: as the VHH chain of Sm1 (D3-L11 wild type, PDB 6JB8) with A79V; SAG tripeptide linker before the C-terminal 6xHis tag; source: ExpiCHO, transient transfection, purified from supernatant (His Mag Sepharose excel); not shown: His6, C-terminal, kept
B8: D3-L11 A79Y (VHH)
VHH: B1 VHH with R79Y
notes: as the VHH chain of m2 (D3-L11, PDB 6JB8) with the stated substitution; Second-round mutant; same construct as m2; also called Y mutant; source: ExpiCHO, transient transfection, purified from supernatant (His Mag Sepharose excel); not shown: His6 (after a SAG tripeptide linker), C-terminal, kept
B9: D3-L11 A79H (VHH)
VHH: B1 VHH with R79H
notes: as the VHH chain of m2 (D3-L11, PDB 6JB8) with the stated substitution; Second-round mutant; same construct as m2; also called H mutant; source: ExpiCHO, transient transfection, purified from supernatant (His Mag Sepharose excel); not shown: His6 (after a SAG tripeptide linker), C-terminal, kept
B10: D3-L11 A79W (VHH)
VHH: B1 VHH with R79W
notes: as the VHH chain of Sm1 (D3-L11 wild type, PDB 6JB8) with A79W; SAG tripeptide linker before the C-terminal 6xHis tag; source: ExpiCHO, transient transfection, purified from supernatant (His Mag Sepharose excel); not shown: His6, C-terminal, kept
B11: D3-L11 A79N (VHH)
VHH: B1 VHH with R79N
notes: as the VHH chain of m2 (D3-L11, PDB 6JB8) with the stated substitution; Second-round mutant; same construct as m2; also called N mutant; source: ExpiCHO, transient transfection, purified from supernatant (His Mag Sepharose excel); not shown: His6 (after a SAG tripeptide linker), C-terminal, kept
B12: D3-L11 A79L (VHH)
VHH: B1 VHH with R79L
notes: as the VHH chain of m2 (D3-L11, PDB 6JB8) with the stated substitution; Second-round mutant; same construct as m2; also called L mutant; source: ExpiCHO, transient transfection, purified from supernatant (His Mag Sepharose excel); not shown: His6 (after a SAG tripeptide linker), C-terminal, kept
B13: D3-L11 A79I (VHH)
VHH: B1 VHH with R79I
notes: as the VHH chain of m2 (D3-L11, PDB 6JB8) with the stated substitution; Second-round mutant; same construct as m2; also called I mutant; source: ExpiCHO, transient transfection, purified from supernatant (His Mag Sepharose excel); not shown: His6 (after a SAG tripeptide linker), C-terminal, kept
B14: D3-L11 A79Y (VHH)
VHH: B1 VHH with R79Y
notes: as the VHH chain of Sm1 (D3-L11 wild type, PDB 6JB8) with A79Y; SAG tripeptide linker before the C-terminal 6xHis tag; source: ExpiCHO, transient transfection, purified from supernatant (His Mag Sepharose excel); not shown: His6, C-terminal, kept
B15: D3-L11 A79Q (VHH)
VHH: B1 VHH with R79Q
notes: as the VHH chain of m2 (D3-L11, PDB 6JB8) with the stated substitution; Second-round mutant; same construct as m2; also called Q mutant; source: ExpiCHO, transient transfection, purified from supernatant (His Mag Sepharose excel); not shown: His6 (after a SAG tripeptide linker), C-terminal, kept
B16: D3-L11 A79E (VHH)
VHH: B1 VHH with R79E
notes: as the VHH chain of m2 (D3-L11, PDB 6JB8) with the stated substitution; Second-round mutant; same construct as m2; Too little protein for SPR; also called E mutant; source: ExpiCHO, transient transfection, purified from supernatant (His Mag Sepharose excel); not shown: His6 (after a SAG tripeptide linker), C-terminal, kept
B17: D3-L11 A24L (VHH)
VHH: B1 VHH with A24L, R79A
notes: as the VHH chain of Sm1 (D3-L11 wild type, PDB 6JB8) with A24L; SAG tripeptide linker before the C-terminal 6xHis tag; source: ExpiCHO, transient transfection, purified from supernatant (His Mag Sepharose excel); not shown: His6, C-terminal, kept
B18: D3-L11 A79M (VHH)
VHH: B1 VHH with R79M
notes: as the VHH chain of m2 (D3-L11, PDB 6JB8) with the stated substitution; Second-round mutant; same construct as m2; also called M mutant; source: ExpiCHO, transient transfection, purified from supernatant (His Mag Sepharose excel); not shown: His6 (after a SAG tripeptide linker), C-terminal, kept

Legend:
Conditions in all cases: both partners purified
hen egg lysozyme [1] = target: T1, hen egg lysozyme (Gallus gallus (hen egg white), UniProt P00698); assay: SPR; Biacore T200; lysozyme immobilised on Sensor Chip CM5 by amine coupling (200 RU); VHH injected 300 s, dissociation 600 s in PBST (PBS, 0.005% Tween 20); 1:1 binding model; duplicate
T1 construct: hen egg lysozyme (HEL), the antigen of D3-L11; also in PDB 6JB8; The supplier is named for the ELISA only; also called HEL; antigen lysozyme; source: bought: Sigma-Aldrich, Cat No. L6876
T1 sequence (P00698 19-147): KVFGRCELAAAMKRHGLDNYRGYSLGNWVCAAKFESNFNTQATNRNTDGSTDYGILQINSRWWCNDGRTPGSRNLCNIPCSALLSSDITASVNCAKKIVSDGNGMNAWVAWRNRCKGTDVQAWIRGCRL

hen egg lysozyme [2] = target: T2, hen egg lysozyme (Gallus gallus (hen egg white), UniProt P00698); assay: SPR; Biacore T200; lysozyme immobilised on Sensor Chip CM5 by amine coupling to 200 RU; VHH injected 300 s, dissociation 600 s; running buffer PBST (PBS, 0.005% Tween 20); duplicate; 1:1 binding model
T2 construct: hen egg lysozyme (HEL), antigen of VHH D3-L11; also in the complex structure PDB 6JB8; also called HEL; antigen lysozyme; source: bought: Sigma-Aldrich, Cat No. L6876 (named for the ELISA)
T2 sequence (P00698 19-147): as above

hen egg lysozyme [3] = target: T2, hen egg lysozyme; assay: ELISA; lysozyme (1 ug/mL) coated on 384-well MaxiSorp plate overnight at 4 °C; serial concentrations of VHH in 5% BlockingOne in TBST, 1 h at room temperature; detected with Penta-His HRP conjugate

Row | Binder | Kd (hen egg lysozyme [1]) [pM] | fold decrease in affinity (KD) against wild type (hen egg lysozyme [2]) [fold] | further results
1 | B1 | 26 ± 0.1 | – | –
2 | B2 | – | < 10 | –
3 | B3 | 11.7 | – | –
4 | B4 | 6.54 ± 0.03 | – | –
5 | B5 | 4.92 ± 0.12 | – | –
6 | B6 | – | < 2 | –
7 | B7 | 3.66 ± 0.13 | – | –
8 | B8 | – | < 2 | –
9 | B9 | – | < 10 | –
10 | B10 | 14.9 ± 0.1 | – | –
11 | B11 | – | < 10 | fold decrease in affinity (EC50) against wild type (hen egg lysozyme [3]): < 10 fold
12 | B12 | – | < 10 | fold decrease in affinity (EC50) against wild type (hen egg lysozyme [3]): < 10 fold
13 | B13 | – | 1.6 | –
14 | B14 | 5.57 ± 0.04 | – | –
15 | B15 | – | < 10 | –
16 | B16 | – | – | binding result (hen egg lysozyme [3]): binds
17 | B17 | 43.6 ± 1.3 | – | –
18 | B18 | – | < 10 | fold decrease in affinity (EC50) against wild type (hen egg lysozyme [3]): < 10 fold
